Test results published in patent US20240425569A1 (VISTERRA, published 2024).

How the values were obtained:
[1] = target: T1, Singapore/2008 (serotype II EDIII); assay: ELISA; row Singapore/2008, serotype II, genotype Cosmopolitan
T1 construct: also called ED3-DV2/Sing08; DENV-2 Sing

[2] = target: T2, Venezuela/2007 (serotype II EDIII); assay: SPR; row Venezuela/2007, serotype II, genotype SE-Asian/American
T2 construct: also called ED3-DV2/Venezuela07
T2 E protein domain III (EDIII): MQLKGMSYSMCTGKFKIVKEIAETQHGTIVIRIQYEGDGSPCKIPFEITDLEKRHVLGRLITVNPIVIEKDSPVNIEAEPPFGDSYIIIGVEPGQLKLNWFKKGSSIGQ

[3] = target: T3, Peru/1995 (serotype II EDIII); assay: ELISA; row Peru/1995, serotype II, genotype American
T3 construct: also called ED3-DV2/Peru95; DENV-2 Peru

[4] = target: T4, Puerto Rico/1977 (serotype III EDIII); assay: SPR; row Puerto Rico/1977, serotype III, genotype IV
T4 construct: Genotype IV; also called ED3-DV3/PuertoRico77
T4 E protein domain III (EDIII): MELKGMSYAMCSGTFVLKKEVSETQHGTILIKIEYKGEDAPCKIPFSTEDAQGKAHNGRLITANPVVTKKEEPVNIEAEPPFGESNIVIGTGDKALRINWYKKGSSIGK

[5] = target: T5, Nicaragua/2010 (serotype III EDIII)
T5 construct: also called ED3-DV3/Nicaragua10; DENV-3 Nic
T5 E protein domain III (EDIII): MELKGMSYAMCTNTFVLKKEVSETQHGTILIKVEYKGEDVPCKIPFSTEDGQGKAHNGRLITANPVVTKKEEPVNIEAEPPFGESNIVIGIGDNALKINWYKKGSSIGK

[6] = target: T6, Hawaii/1944* (serotype I EDIII) (Dengue virus 1); assay: SPR; row Hawaii/1944*, serotype I, genotype I
T6 construct: isolated EDIII protein; also called EDIII of DENV-1 Hawaii/1944

[7] = target: T7, Singapore/2009 (serotype III EDIII)
T7 construct: also called ED3-DV3/Sing09; DENV-3 Sing
T7 E protein domain III (EDIII): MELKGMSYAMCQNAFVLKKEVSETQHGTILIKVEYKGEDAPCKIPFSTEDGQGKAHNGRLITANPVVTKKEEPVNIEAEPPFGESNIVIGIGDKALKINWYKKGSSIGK

[8] = target: T8, Thailand/1997 (serotype IV EDIII); assay: SPR; row Thailand/1997, serotype IV, genotype III
T8 E protein domain III (EDIII): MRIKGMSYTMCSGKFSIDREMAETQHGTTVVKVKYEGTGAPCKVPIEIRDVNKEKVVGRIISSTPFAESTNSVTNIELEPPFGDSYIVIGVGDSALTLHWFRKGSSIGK

[9] = target: T6, Hawaii/1944* (serotype I EDIII); assay: ELISA; row Hawaii/1944*, serotype I, genotype I
[10] = target: T1, Singapore/2008 (serotype II EDIII); assay: SPR; row Singapore/2008, serotype II, genotype Cosmopolitan
[11] = target: T9, Mexico/1977 (BC287/97)* (serotype IV EDIII) (Dengue virus 4); assay: ELISA; row Mexico/1977 (BC287/97)*, serotype IV, genotype IIa
T9 construct: isolated EDIII protein; also called EDIII of DENV-4 Mexico/1997 (BC287/97); DENV-4 BC2

[12] = target: T10, EDIII-DV4 (E protein domain III of dengue virus serotype DV-4) (dengue virus serotype DV-4, UniProt P09866 572-679)
T10 construct: also called DENV-4

[13] = target: T3, Peru/1995 (serotype II EDIII); assay: Kd table, method not stated; Ag DENV-2 Peru
[14] = target: T9, Mexico/1977 (BC287/97)* (serotype IV …); assay: SPR; row Mexico/1977 (BC287/97)*, serotype IV, genotype IIa
[15] = target: T11, New Guinea/1944 (NGC)* (serotype II EDIII) (Dengue virus 2); assay: ELISA; row New Guinea/1944 (NGC)*, serotype II, genotype Asian I
T11 construct: isolated EDIII protein; also called EDIII of DENV-2 NGC

[16] = target: T12, Vietnam/2007 (serotype II EDIII); assay: ELISA; row Vietnam/2007, serotype II, genotype Asian II
T12 construct: Genotype Asian II; also called ED3-DV2/Viet07
T12 E protein domain III (EDIII): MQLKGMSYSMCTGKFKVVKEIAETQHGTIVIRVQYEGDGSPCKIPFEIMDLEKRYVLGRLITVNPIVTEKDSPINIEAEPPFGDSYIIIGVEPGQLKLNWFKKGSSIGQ

[17] = target: T13, Malaysia/2005 (serotype I EDIII)
T13 construct: also called ED3-DV1/Malaysia05
T13 E protein domain III (EDIII): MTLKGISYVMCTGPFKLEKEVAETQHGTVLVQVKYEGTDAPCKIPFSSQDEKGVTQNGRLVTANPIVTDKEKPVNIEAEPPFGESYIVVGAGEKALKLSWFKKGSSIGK

[18] = target: T11, New Guinea/1944 (NGC)* (serotype II …); assay: SPR; row New Guinea/1944 (NGC)*, serotype II, genotype Asian I
[19] = target: T14, Mexico/2007 (serotype I EDIII)
T14 construct: also called ED3-DV1/Mexico07
T14 E protein domain III (EDIII): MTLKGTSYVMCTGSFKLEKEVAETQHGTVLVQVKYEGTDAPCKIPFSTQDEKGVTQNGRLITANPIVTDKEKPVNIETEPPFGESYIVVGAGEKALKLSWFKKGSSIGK

T11 sequence (P14340 578-673): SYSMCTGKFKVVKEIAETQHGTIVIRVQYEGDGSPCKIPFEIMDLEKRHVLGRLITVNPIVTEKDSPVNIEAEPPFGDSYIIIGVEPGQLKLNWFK
T10 sequence (P09866 572-679, tags left off): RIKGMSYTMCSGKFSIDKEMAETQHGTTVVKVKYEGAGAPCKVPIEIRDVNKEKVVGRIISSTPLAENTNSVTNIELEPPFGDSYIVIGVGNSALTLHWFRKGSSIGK

B1: antibody D88 (antibody, V domains shown)
VH: QVQLVQSGAEVKKPGASVKVSCKAGFNIKDVYMSWVRQAPEQGLEWMGRIDPENGDTKYDPKLQGRVTMTADTSTNTAYMELRSLRSDDTAVYYCARGWEGFAYWGQGTLVTVSS
VL: DIVMTQSPASLAVSLGERATISCRASENVDKYGNSFMHWYQQKPGQPPKLLIYRASELQWGVPDRFSGSGSGTDFTLTISSLQAEDVAVYYCQRSNEVPWTFGQGTKLEIK
notes: also called mAb D88
Q: Which results are given for B1?
A: Kd [1]: < 0.1 nM; Kd [2]: 0.029 nM; Kd [3]: < 0.1 nM; Kd [4]: 1.4 nM; Kd [5]: 3.36 nM; Kd [6]: 0.041 nM; Kd [7]: 0.35 nM; Kd [8]: > 300 nM; Kd [9]: < 0.1 nM; Kd [10]: 0.024 nM; Kd [11]: 4.32 nM; Kd [12]: 3.12 nM; Kd [13]: < 0.1 nM; Kd [14]: 3.8 nM; Kd [15]: < 0.1 nM; Kd [16]: < 0.1 nM; Kd [17]: < 0.1 nM; Kd [18]: 0.016 nM; Kd [19]: 0.071 nM
